Legend:
[1] = target: human TB‐PIGS:ΔXF (Ag85B fused to a truncated human γ1 chain and the IgM μ tailpiece), produced in g (M. tuberculosis | human | not stated) (UniProt P9WQP1); assay: SPR; Biacore X100, HBS-EP+; TB-PIGS captured on protein A coupled to a CM5 chip; FcγR as analyte, 40 μL/min; affinity of one FcγR for a single arm
[2] = target: human TB‐PIGS (Ag85B fused to a truncated human γ1 chain and the IgM μ tailpiece), produced in wild‐type N. benthamiana (M. tuberculosis | human | not stated) (UniProt P9WQP1); assay: native gel or EMSA
[3] = target: murine TB‐PIGS (Ag85B fused to a truncated mouse γ2a chain and the IgM μ tailpiece), produced in wil (M. tuberculosis | mouse | not stated) (UniProt P9WQP1); assay: native gel or EMSA
[4] = target: Human TB-PIGS produced in wild-type Nicotiana benthamiana (Ag85B - truncated human γ1 chain - IgM tailpiece) (Mycobacterium tuberculosis | human | not stated) (UniProt P9WQP1); assay: SPR; Biacore X100; protein A on a CM5 chip, IgG or TB-PIGS captured; five-six concentrations of human CD16a as analyte; HBS-EP+; 40 uL/min, contact 90 s, dissociation 300 s; two-state binding interaction model
[5] = target: Human TB-PIGS produced in glyco-engineered ΔXF Nicotiana benthamiana (Mycobacterium tuberculosis | human | not stated) (UniProt P9WQP1); assay: SPR; Biacore X100; protein A on a CM5 chip, IgG or TB-PIGS captured; human CD32a as analyte, 4000 nM to 125 nM in 2-fold dilutions; HBS-EP+; 40 uL/min, contact 90 s; steady-state affinity analysis
[6] = target: Human TB-PIGS produced in wild-type Nicotiana benthamiana (Ag85B - truncated human γ1 chain - IgM tailpiece) (Mycobacterium tuberculosis | human | not stated) (UniProt P9WQP1); assay: as above
[7] = target: Murine TB-PIGS produced in glyco-engineered ΔXF Nicotiana benthamiana (Mycobacterium tuberculosis | mouse | not stated) (UniProt P9WQP1); assay: SPR; Biacore X100; protein A amine-coupled on a CM5 chip, IgG or TB-PIGS captured on it; CD64 (human or mouse) as analyte, 240 nM down to 1.875 nM in 1:2 dilutions; HBS-EP+; 40 uL/min, contact 135 s, dissociation 600 s; 1:1 model, but for human TB-PIGS from wild-type plants the 'Heterogeneous antibody with aglycosylation' model (two sets of values)
[8] = target: Murine TB-PIGS produced in wild-type Nicotiana benthamiana (Ag85B - truncated mouse γ2a chain - IgM tailpiece) (Mycobacterium tuberculosis | mouse | not stated) (UniProt P9WQP1); assay: as above

“human CD64 (FcγRI) (from UniProt P12314 16-292) (receptor)” was tested, and the Kd [1] was 0.41 nM.

“human TB‐PIGS (Ag85B fused to a truncated human γ1 chain and the IgM μ tailpiece), produced in wild‐type N. benthamiana (from UniProt P9WQP1 41-325) (Fc fusion)” gave a percent of the sample as polymers [2] of 35 to 60%.

“murine TB‐PIGS (Ag85B fused to a truncated mouse γ2a chain and the IgM μ tailpiece), produced in wil (from UniProt P9WQP1 41-325) (Fc fusion)” gave a percent of the sample as polymers [3] of 5 to 20%.

“human CD16a (FcγRIIIa) (from UniProt P08637 17-208) (receptor)” gave a Kd [1] of 19.7 nM and a Kd [4] of 279 nM.

“human CD32a (FcγRIIa) (from UniProt P12318 34-217) (receptor)” showed a Kd [5] of 2160 nM and a Kd [6] of 4.21 µM.

B1: mouse CD64 (FcγRI) (receptor)
chain: EVVNATKAVITLQPPWVSIFQKENVTLWCEGPHLPGDSSTQWFINGTAVQISTPSYSIPEASFQDSGEYRCQIGSSMPSDPVQLQIHNDWLLLQASRRVLTEGEPLALRCHGWKNKLVYNVVFYRNGKSFQFSSDSEVAILKTNLSHSGIYHCSGTGRHRYTSAGVSITVKELFTTPVLRASVSSPFPEGSLVTLNCETNLLLQRPGLQLHFSFYVGSKILEYRNTSSEYHIARAEREDAGFYWCEVATEDSSVLKRSPELELQVLGPQSSAP
B1 was tested, and the Kd [7] was 16.8 nM, the koff [7] was 0.0231 s⁻¹ and the kon [7] was 1.38e+06 M⁻¹ s⁻¹. The Kd [8] was 50 nM, the koff [8] was 0.0248 s⁻¹ and the kon [8] was 500000 M⁻¹ s⁻¹.
